Where two headings read alike, the source gives them in different places.

Here are results for four molecules from PMC11042539 (Journal of the American Chemical Society, 2011).

In one series the target is Ag85c (Mycobacterium tuberculosis, UniProt P9WQN9). As to the kind of experiment: biochemical.
Series [1] concerns OC[C@H]1O[C@H](O[C@H]2O[C@H](CO)[C@@H](O)[C@H](O)[C@H]2O)[C@H](O)[C@@H](O)[C@@H]1O. As to the kind of experiment: purified protein.

Ag85c, sequence (P9WQN9 46-340 limits assumed): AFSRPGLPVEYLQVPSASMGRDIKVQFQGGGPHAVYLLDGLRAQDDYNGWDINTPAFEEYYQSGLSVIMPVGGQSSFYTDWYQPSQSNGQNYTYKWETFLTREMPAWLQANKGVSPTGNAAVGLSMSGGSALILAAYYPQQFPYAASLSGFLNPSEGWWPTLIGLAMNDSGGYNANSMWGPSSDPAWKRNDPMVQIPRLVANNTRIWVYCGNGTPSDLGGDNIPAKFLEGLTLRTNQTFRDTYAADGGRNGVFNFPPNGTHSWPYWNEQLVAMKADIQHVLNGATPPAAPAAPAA

For the molecule `CCCCCC(=O)OC[C@H]1O[C@H](O[C@H]2O[C@H](COC(=O)CCCCC)[C@@H](O)[C@H](O)[C@H]2O)[C@H](O)[C@@H](O)[C@@H]1O` [2b, 6,6’-di-hexanoyltrehalose], on Ag85c, the Ki turned out to be 355 ± 106 µM.

Regarding “Ag85a (Mycobacterium tuberculosis H37Rv)”, in series [1], the Michaelis-Menten constant (Km) turned out to be 175 µM, the kcat came out at 0.014 s⁻¹ and the catalytic efficiency (kcat/Km) was 82 M⁻¹ s⁻¹.

On to “Ag85b (Mycobacterium tuberculosis H37Rv)”, for which, in series [1], the Km worked out at 112 µM, the kcat stood at 0.003 s⁻¹ and the kcat/Km is 30 M⁻¹ s⁻¹.

On to “Ag85c (Mycobacterium tuberculosis H37Rv)”, for which, in series [1] (Ser-His-Asp catalytic triad at the trehalose binding site), the Km came out at 16.9 ± 5.3 µM.

The term Ki denotes the equilibrium dissociation constant of an inhibitor or competing ligand from its target. A lower Ki goes with tighter binding. For orientation: Km means the substrate concentration at which the rate is half of its maximum. Usually kcat stands for the maximal rate divided by the concentration of active sites. What is called kcat/Km is the turnover number divided by the Michaelis constant.
